Ends that are not written are not given here.
Assays:
[1] = Effect of DGC on blood biochemistry of mice; type: in vivo, C57BL/6J mice; details: DGC group, mean of 3 mice
Source text: In order to clarify the NIR-II signal in AD brains when in vivo imaging is arisen from the DGC probe that bound to CTGF, we selected 3-month-old APP/PS1 mice representing early-stage AD and the age-matched WT mice as control to performed ex vivo multimodal analysis of the brain sections. […] To exclude the influence of vascular retention, we emptied the cerebral vessels by cardiac perfusion and performed ex vivo imaging of the brains. […] For brain sections made from AD mice after tail vein injection of DGC, the red fluorescence observation and LA-ICP-TOF-MS of DGC, as well as a POD-like catalysis test were performed. […] In Fig. 6c, the colocalization of DGC (red fluorescence) and CTGF (green fluorescence) on the ex vivo brain sections confirmed the specificity of DGC targeting CTGF in vivo. To further identify the cellular target of DGC in the brain of APP/PS1 mice, we carried out immunofluorescence staining on the ex vivo brain sections after tail vein injection of DGC where cell-specific fluorescent antibodies for microglia (Iba 1), neurons (NeuN), vascular endothelial cell (CD31) and reactive astrocytes (GFAP) were applied. In Fig. 6d, […] co-localizes with GFAP-positive active astrocytes and CD31-positive microvessels, but not with neurons or microglia. […] The biosafety of DGC in C57BL/6J mice under the NIR-II imaging condition was evaluated by blood tests (blood cells and biochemical analysis) and organ pathological analysis (H&E staining).

CTGF = target: T1, CTGF (Homo sapiens, UniProt P29279); assay: ICP-MS of Au content in DGC-labelled human brain sections; set-up: The brain tissue samples of autopsy-confirmed AD patients were obtained from the Chinese Brain Bank Center; from tissue; host or cells: postmortem human brain sections (hippocampus, cortex) of AD patients and healthy controls; ICP-MS (Au content): unit not given here
T1 sequence (P29279 27-349): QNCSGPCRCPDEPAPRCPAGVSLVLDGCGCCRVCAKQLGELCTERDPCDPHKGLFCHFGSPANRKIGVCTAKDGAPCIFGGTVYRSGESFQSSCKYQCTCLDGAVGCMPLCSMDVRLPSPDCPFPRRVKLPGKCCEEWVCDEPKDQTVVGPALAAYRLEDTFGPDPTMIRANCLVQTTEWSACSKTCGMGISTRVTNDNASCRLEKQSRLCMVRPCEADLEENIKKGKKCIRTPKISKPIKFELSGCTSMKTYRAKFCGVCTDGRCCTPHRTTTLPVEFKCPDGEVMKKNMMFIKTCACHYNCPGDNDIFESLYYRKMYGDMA
Experimental: The brain tissue samples of autopsy-confirmed AD patients were obtained from the Chinese Brain Bank Center (CBBC) and Human Brain Bank, Central South University Xiangya School of Medicine. First, the brain sections were air-dried for 15 min at room temperature, followed by immersion in water. 5% H2O2 was applied for 15 min at room temperature. The sections were washed three times with PBS for 5 min each time. Then, tissue repair was performed using trypsin at a temperature of 37 °C for 5 min and washed three times with PBS. We chose 10% sheep serum to block for a duration of 20 min at 37°. Primary antibodies (CTGF antibody and Aβ antibody) were added to the sections overnight at 4 °C. FITC-labeled Goat Anti-Rabbit IgG (H + L) (1: dilution 1:200, Bioss, Cat#bs-0370R-FITC) was applied and incubated at 37 °C for 20 min in darkness. Subsequent washing steps involved rinsing the sections three times with PBS, each time lasting for 5 min while avoiding exposure to light. DAPI staining was performed, taking care to store the samples away from light during the 5-min procedure. Then observed by the CLSM system. Then, we chose the optimal incubation concentration of DGC (200 μM) was used to determine the conditions using DAB Horseradish Peroxidase Color Development Kit. After the brain sections were co-stained by DGC (200 μM) at 4 °C overnight, a DAB chromogenic agent was added to the brain tissue sections to explore whether DGC can catalyze DAB solutions to produce insoluble brown precipitate to attach the brain tissue sections with an optical microscope. Finally, the brain tissue sections were digested with aqua regia to measure the Au content by the ICP-MS system.

Au Content (DGC) per cm^2 by ICP-MS (CTGF; Case 1 (healthy control, Thal 0) brain section, section 1): 0.1533 | Au Content (DGC) per cm^2 by ICP-MS (CTGF; Case 1 (healthy control, Thal 0) brain section, section 2): 0.3279 | Au Content (DGC) per cm^2 by ICP-MS (CTGF; Case 1 (healthy control, Thal 0) brain section, section 3): 0.1558 | Au Content (DGC) per cm^2 by ICP-MS (CTGF; Case 2 (healthy control, Thal 0) brain section, section 1): 0.09047 | Au Content (DGC) per cm^2 by ICP-MS (CTGF; Case 2 (healthy control, Thal 0) brain section, section 2): 0.265 | Au Content (DGC) per cm^2 by ICP-MS (CTGF; Case 2 (healthy control, Thal 0) brain section, section 3): 0.06474 | Au Content (DGC) per cm^2 by ICP-MS (CTGF; Case 3 (AD, Thal 1) brain section, section 1): 0.6218 | Au Content (DGC) per cm^2 by ICP-MS (CTGF; Case 3 (AD, Thal 1) brain section, section 2): 0.4537 | Au Content (DGC) per cm^2 by ICP-MS (CTGF; Case 3 (AD, Thal 1) brain section, section 3): 0.399 | Au Content (DGC) per cm^2 by ICP-MS (CTGF; Case 4 (AD, Thal 1) brain section, section 1): 0.5318 | Au Content (DGC) per cm^2 by ICP-MS (CTGF; Case 4 (AD, Thal 1) brain section, section 2): 0.7576 | Au Content (DGC) per cm^2 by ICP-MS (CTGF; Case 4 (AD, Thal 1) brain section, section 3): 0.7155
Substance: DGC: CTGF-targeting peptide-coated gold nanocluster: one Au26 gold nanocluster coated by eight DAG cyclic peptides, NIR-II and red fluorescence (CDAGRKQKC; also: cyclic peptide, ring not given here, eight peptides on one Au26 nanocluster via Cys Au-S bonds)
Urea (UREA) [1]: 9.62 ± 1.25 | Alanine aminotransferase (ALT) ([1]; in U/L (unit assumed)): 32.8 ± 4.26 | Alkaline phosphatase (ALP) ([1]; in U/L (unit assumed)): 220.7 ± 27.07 | Aspartate aminotransferase (AST) ([1]; in U/L (unit assumed)): 120.2 ± 20.04 | Creatinine (CREA) ([1]; in µmol/L (unit assumed)): 22.67 ± 1.98 | ICP-MS (Au content) (CTGF; AD 1, Cortex section stained with DGC): 16.9799 | ICP-MS (Au content) (CTGF; AD 1, Hippocampus section stained with DGC): 24.3713 | ICP-MS (Au content) (CTGF; AD 2, Cortex section stained with DGC): 28.448 | ICP-MS (Au content) (CTGF; AD 2, Hippocampus section stained with DGC): 30.5308 | ICP-MS (Au content) (CTGF; HC 1, Cortex section stained with DGC): 3.7846 | ICP-MS (Au content) (CTGF; HC 1, Hippocampus section stained with DGC): 2.83 | ICP-MS (Au content) (CTGF; HC 2, Cortex section stained with DGC): 3.7846 | ICP-MS (Au content) (CTGF; HC 2, Hippocampus section stained with DGC): 11.6586

— article PMC11169542, “A probe for NIR-II imaging and multimodal analysis of early Alzheimer’s disease by targeting CTGF” (Nature Communications, 2024)
